Data taken from US20210055300A1 (EISAI R AND D MANAGEMENT, published 2021).

T1: refolded rhAPOA4-His monomer (human, UniProt P06727 21-396)
T1 construct: not shown: C-terminal histidine tag
T1 sequence: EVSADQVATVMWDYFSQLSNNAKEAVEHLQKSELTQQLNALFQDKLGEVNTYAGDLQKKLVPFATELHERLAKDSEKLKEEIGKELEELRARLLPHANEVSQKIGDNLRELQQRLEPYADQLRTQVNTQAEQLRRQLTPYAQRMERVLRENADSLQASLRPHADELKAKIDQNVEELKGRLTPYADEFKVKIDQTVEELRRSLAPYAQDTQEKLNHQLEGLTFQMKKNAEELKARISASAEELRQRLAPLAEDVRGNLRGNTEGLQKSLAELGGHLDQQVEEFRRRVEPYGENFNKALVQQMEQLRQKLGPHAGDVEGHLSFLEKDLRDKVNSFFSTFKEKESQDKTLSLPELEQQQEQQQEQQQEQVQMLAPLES

T2: rhAPOA4-His monomer (human, UniProt P06727 21-396)
T2 construct: also called APOA4 monomer; monomer of rhAPOA4-His; not shown: C-terminal histidine tag
T2 sequence: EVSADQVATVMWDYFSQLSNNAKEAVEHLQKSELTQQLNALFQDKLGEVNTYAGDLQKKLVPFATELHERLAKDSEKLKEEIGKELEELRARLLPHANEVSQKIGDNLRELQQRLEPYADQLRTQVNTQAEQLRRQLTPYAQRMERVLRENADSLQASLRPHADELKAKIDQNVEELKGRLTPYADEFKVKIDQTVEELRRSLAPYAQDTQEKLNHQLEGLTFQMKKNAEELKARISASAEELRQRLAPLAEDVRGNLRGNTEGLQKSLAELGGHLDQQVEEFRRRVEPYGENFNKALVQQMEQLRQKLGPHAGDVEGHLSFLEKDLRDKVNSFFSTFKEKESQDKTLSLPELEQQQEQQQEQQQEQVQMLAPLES

T3: rhAPOA4-His dimer (human, UniProt P06727 21-396)
T3 construct: also called APOA4 dimer; dimer of rhAPOA4-His; not shown: C-terminal histidine tag
T3 sequence: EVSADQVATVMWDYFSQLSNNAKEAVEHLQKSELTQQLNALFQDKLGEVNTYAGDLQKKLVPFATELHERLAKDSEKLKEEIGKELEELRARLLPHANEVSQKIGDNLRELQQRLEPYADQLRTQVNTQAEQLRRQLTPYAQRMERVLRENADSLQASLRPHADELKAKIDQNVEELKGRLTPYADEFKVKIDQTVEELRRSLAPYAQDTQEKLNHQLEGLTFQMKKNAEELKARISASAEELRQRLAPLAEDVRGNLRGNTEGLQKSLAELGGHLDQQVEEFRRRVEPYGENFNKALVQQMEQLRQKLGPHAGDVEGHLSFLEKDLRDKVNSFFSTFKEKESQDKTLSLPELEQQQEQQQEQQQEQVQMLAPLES

T4: APOA4 in human serum (human, UniProt P06727 21-396)
T4 construct: Native protein in serum of healthy humans (monomer and dimer); also called human serum APOA4; APOA4 in the specimen
T4 sequence: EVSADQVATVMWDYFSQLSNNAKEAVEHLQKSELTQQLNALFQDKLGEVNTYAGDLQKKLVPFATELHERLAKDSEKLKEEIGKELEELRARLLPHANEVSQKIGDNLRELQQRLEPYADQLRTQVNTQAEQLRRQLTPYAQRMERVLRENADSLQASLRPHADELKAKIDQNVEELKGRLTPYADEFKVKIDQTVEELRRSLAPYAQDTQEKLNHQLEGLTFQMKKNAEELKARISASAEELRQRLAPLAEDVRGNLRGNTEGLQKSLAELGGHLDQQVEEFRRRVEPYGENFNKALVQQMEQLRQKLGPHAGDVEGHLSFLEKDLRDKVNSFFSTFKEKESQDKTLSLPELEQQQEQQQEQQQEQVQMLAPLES

T5: recombinant human APOA4 in which a histidine tag is bound to the C-terminal of human APOA4 (human, UniProt P06727 21-396)
T5 construct: Secreted from Expi293F cells and purified from the supernatant; Unfractionated mix of monomer and dimer; also called rhAPOA4-His; rhAPOA-His; not shown: C-terminal histidine tag
T5 sequence: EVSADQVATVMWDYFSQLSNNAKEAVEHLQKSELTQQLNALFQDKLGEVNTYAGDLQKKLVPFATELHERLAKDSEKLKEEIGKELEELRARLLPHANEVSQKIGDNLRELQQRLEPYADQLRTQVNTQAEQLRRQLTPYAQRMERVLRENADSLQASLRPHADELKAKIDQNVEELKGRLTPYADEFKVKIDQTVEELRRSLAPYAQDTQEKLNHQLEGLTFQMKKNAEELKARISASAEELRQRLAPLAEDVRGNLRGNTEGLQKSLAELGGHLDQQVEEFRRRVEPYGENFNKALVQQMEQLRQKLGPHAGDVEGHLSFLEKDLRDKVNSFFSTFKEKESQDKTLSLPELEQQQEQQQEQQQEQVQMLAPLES


Key:
[1] = target: T1, refolded rhAPOA4-His monomer; assay: ELISA, antigen captured by anti-6xHis antibody, hybridoma supernatant
Description: Using the culture supernatant of the hybridoma obtained in (1), the reactivity to rhAPOA4-His was evaluated by ELISA as follows.
50 μL/well of a 50 mM Tris buffer (pH 7.5) containing 2 μg/mL of an anti-6×His rabbit polyclonal antibody (anti-6×His antibody, manufactured by Bethyl Laboratories) was added to a 96-well plate (manufactured by Nunc), and incubation was performed at 4° C. overnight. After removing the anti-6×His antibody solution, blocking was performed by adding 100 μL/well of 50 mM Tris-buffered saline solution (pH 7.5) containing 0.01% Tween 20 and 5% skim milk, and the plate was left at room temperature for 1 hour. After washing the well three times with Tris-buffered saline solution (pH 7.5) (washing solution) containing 0.01% Tween 20, rhAPOA4-His prepared in Example 1 or refolded rhAPOA4-His monomer prepared by the method described below was added at a concentration of 450 ng/mL (10 nM) by 50 μL/well, and incubation was performed at room temperature for 1 hour. The refolded rhAPOA4-His monomer was prepared by diluting rhAPOA4-His prepared in Example 1 two-fold with a 50 mM Tris-buffered saline solution (pH 7.5) containing 8 M urea (manufactured by Wako Pure Chemical Industries, Ltd.), leaving at room temperature for 30 minutes, and diluting 50-fold with a 50 mM Tris-buffered saline solution (pH 7.5) (reaction solution) containing 4% Block Ace (manufactured by DS Pharma Biomedical Corporation) and 0.01% Tween 20. After washing the well three times with the washing solution, the culture supernatant of the hybridoma was added to the well and incubation was performed at room temperature for 1 hour. After removing the added culture supernatant, the well was washed three times with the washing solution. A horseradish peroxidase-labeled anti-mouse IgG antibody (manufactured by Jackson ImmunoResearch Laboratories) appropriately diluted with the reaction solution was added at 50 μL/well, incubation was performed at room temperature for 1 hour, and then the well was washed 5 times with the washing solution. […]

rhAPOA4-His monomer = target: T2, rhAPOA4-His monomer; assay: statement of the description; experiment is the ELISA of Example 4 (FIG. 1)
Description: (§1) 50 μL/well of a 50 mM Tris buffer (pH 7.5) containing 2 μg/mL of an anti-6×His rabbit polyclonal antibody (anti-6×His antibody, manufactured by Bethyl Laboratories) was added to a 96-well plate (manufactured by Nunc), and incubation was performed at 4° C. overnight. After removing the anti-6×His antibody solution, blocking was performed by adding 100 μL/well of 50 mM Tris-buffered saline solution (pH 7.5) containing 0.01% Tween 20 and 5% skim milk, and the plate was left at room temperature for 1 hour. After washing the well three times with a Tris-buffered saline solution (pH 7.5) (washing solution) containing 0.01% Tween 20, the rhAPOA4-His monomer or dimer prepared in Example 2 was diluted so as to be 450 ng/mL with a 50 mM Tris-buffered saline solution (pH 7.5) (reaction solution) containing 1% Block Ace (manufactured by DS Pharma Biomedical) and 0.01% Tween 20, and added thereto at 50 μL/well. After incubating at room temperature for 1 hour, the well was washed three times with the washing solution, and then the anti-human APOA4 monoclonal antibody obtained in Example 3 was diluted with the reaction solution so as to be 1 μg/mL and added thereto at 50 μL/well. After the incubation at room temperature for 1 hour, the well was washed three times with the washing solution. Subsequently, 50 μL/well of a horseradish peroxidase-labeled anti-mouse IgG antibody (manufactured by Jackson ImmunoResearch Laboratories) appropriately diluted with the reaction solution was added, incubation was performed at room temperature for 1 hour, and the well was washed 5 times with the washing solution. 50 μL/well of a TMB (3,3′,5,5′-tetramethylbenzidine) solution was added and incubation was performed at room temperature for 15 minutes. The reaction was stopped by adding 50 μL/well of 1N H₂SO₄ in the equivalent volume to that of the TMB solution, and the absorbance of 450 nm was measured using a microplate reader (manufactured by ThermoFisher Scientific).

rhAPOA4-His dimer = target: T3, rhAPOA4-His dimer; assay: as above
Description: as §1

APOA4 in human serum [2] = target: T4, APOA4 in human serum; assay: sandwich ELISA on diluted human serum, labeled detection antibody with No. 30 as capture
APOA4 in human serum [3] = target: T4, APOA4 in human serum; assay: sandwich ELISA, labeled detection antibody
Description: (§2) Anti-human APOA monoclonal antibody No. 30 was adjusted to a concentration of 2 μg/mL with a 50 mM Tris buffer solution (pH 7.5). Antibody No. 30 solution was added to a Maxisorp cup (NUNC, manufactured by C8 Maxisorp) at 100 μL/well, the Maxisorp cup was put in a wet box and allowed to stand at 4° C. overnight, and antibody No. 30 was coated on the well. After removing antibody No. 30 solution by suction, a 50 mM Tris-buffered saline solution (pH 7.5) (blocking solution) containing 5% skim milk, 0.1% sodium azide, and 0.01% Tween 20 was added at 200 μL/well, and then the cup was left at room temperature for 2 hours or at 4° C. for 1 day or more (hereinafter, the prepared Maxisorp cup is referred to as “antibody No. 30 cup”). […] After stopping the reaction by injecting 100 μL/well of 0.5 M H₂SO₄, the absorbance was measured at a wavelength of 450 nm, and an APOA concentration was calculated using the rhAPOA4-His of a known concentration as a standard substance.

[4] = target: T5, recombinant human APOA4 in which a …; assay: HDX-MS of rhAPOA4-His with and without antibody
Description: A solution in which about 10 μM of antibody No. 30 or antibody No. 33 were added to 10 μM of rhAPOA4-His and rhAPOA4-His and mixed therewith was diluted 20-fold with a PBS deuterium solution to start a deuteration reaction. As a control, a PBS solution was used.
After 1 minute, 10 minutes, 60 minutes, and 240 minutes at 23° C., an equivalent amount of 500 mM TCEP solution (pH 3 or less) containing cooled 2M guanidine hydrochloride was added to stop the reaction. After digesting the reaction solution with a pepsin column, peptide was separated and eluted by reversed-phase liquid chromatography using a C18 column, and LC-MS/MS measurement was performed with a mass spectrometer.
Each peptide derived from rhAPOA4-His was identified from the mass data, and the amount of deuterium exchange at each reaction time was calculated from the mass value. The peptide in which the amount of deuterium exchange was changed depending on the presence or absence of the antibody was extracted as an estimated epitope region.

APOA4 in human serum [5] = target: T4, APOA4 in human serum; assay: sandwich ELISA, capture antibody
Description: as §2

binding result [1]	binding result (rhAPOA4-His monomer)	binding result (rhAPOA4-His dimer)	binding result (APOA4 in human serum [2])	binding result (APOA4 in human serum [3])	binding result [4]	binding result (APOA4 in human serum [5])	Binder
binds	binds	binds	binds	–	–	–	anti-APOA4 monoclonal antibody No. 37 (antibody, IgG1, V domains shown, Mouse hybridoma antibody; also called anti-human APOA4 monoclonal antibody No. 37; HRP-labeled antibody No. 37) VH: QVQLQQSGAELVKPGASVKISCKASGYTFSNYWLNWVKLRPGKGLEWIGQIYPGDGDTNYNGKFKGKATLTADKSSSRAYMQLSSLTSEDSAVYFCARRNNYVMDYWGQGTSVTVSS VL: DIVMTQSHKFMSTSVGDRVSITCKASQDVGTSVAWYQQKLGQSPKLLINWASIRHTGVPDRFTGSGSGTDFSLTISNVQSEDLADHFCQQYSSYPFTFGSGTKLEIK
binds	binds	binds	–	binds	binds	–	anti-APOA4 monoclonal antibody No. 33 (antibody, IgG1, V domains shown, Mouse hybridoma antibody; unlabelled in HDX-MS; also called anti-human APOA4 monoclonal antibody No. 33; HRP-labeled antibody No. 33) VH: QVHLQQSGAELVRPGSSVKISCKASGYAFSIYWMNWVRQRPGQGLEWIGQIYPGDGDTTYNGKFKGKATLTADKSSNTAYMHLSSLTSEDSAVFFCARRGDYVYDYWGQGTTLTVSS VL: DIVMTQSHKLMSTSVGDRVSITCKASQDVGTAVAWYQQKPGQSPKLLIYWASTRHTGVPDRFTGSGSGTDFTLTIYNVQSEDLADYFCQQYSTYPFTFGSGTKLEIK
binds	binds	binds	–	–	binds	binds	anti-APOA4 monoclonal antibody No. 30 (antibody, IgG2b, V domains shown, Mouse hybridoma antibody purified with Protein A; Used as capture antibody coated on the well in the sandwich ELISAs; also called anti-human APOA4 monoclonal antibody No. 30; Anti-human APOA monoclonal antibody No. 30) VH: EVQLQQSGPELVKPGASVKISCKASGYSFIGYFMSWVKQSHGKSLEWIGRINPYNGDTFYNQKFKGKATLTVDKSSSTAHMELLSLTSEDSAVYYCGRGIIGFDYWGQGTTLTVSS VL: DIQMTQSPASLSASVGETVTITCRPSENIHSYLAWYHQKQGKSPQLLVYDATTLAEGVPSRFSGSGSGTQFFLKINSLQPEDFGSYYCQHHYVSPWTFGGGTKLEIK
